According to patent US20220048967A1 (published 2022):
Numbered stars: 1 amine (or outer) side, 2 acyl side, 3 side chain; on linkers, the order of the positions; unused ones are H or OH. Square brackets hold non-standard residues; d marks the D form. Side chains are listed from the residue outwards. Ends that are not written are not given here. * marks the point of attachment. C20 diacid = O=C(O)CCCCCCCCCCCCCCCCCCC(=O)*; αMePhe(2-F) = C[C@](N)(Cc1ccccc1F)C(=O)O; γGlu = O=C(O)[C@H](CCC(=O)[*:2])N[*:1]; αMeF = C[C@](N)(Cc1ccccc1)C(=O)O; AEEA = NCCOCCOCC(=O)O; Aib = CC(C)(N)C(=O)O

T1: human GIP receptor (human, UniProt P48546 22-466)
T1 sequence (looked up): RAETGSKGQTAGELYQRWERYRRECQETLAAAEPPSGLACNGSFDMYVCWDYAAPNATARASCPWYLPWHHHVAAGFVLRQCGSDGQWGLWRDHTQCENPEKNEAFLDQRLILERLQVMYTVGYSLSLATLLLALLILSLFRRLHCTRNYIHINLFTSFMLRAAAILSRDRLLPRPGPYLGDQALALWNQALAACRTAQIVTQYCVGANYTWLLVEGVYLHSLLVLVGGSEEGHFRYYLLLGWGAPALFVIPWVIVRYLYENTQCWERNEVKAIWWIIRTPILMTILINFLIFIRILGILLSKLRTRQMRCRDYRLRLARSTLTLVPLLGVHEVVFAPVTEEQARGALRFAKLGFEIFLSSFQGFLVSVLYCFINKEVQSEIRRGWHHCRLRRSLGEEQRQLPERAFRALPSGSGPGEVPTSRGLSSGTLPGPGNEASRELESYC


Columns and labels:
[1] = target: human GLP-1 receptor (human, UniProt P43220 24-463); assay: cell-based or functional assay
[2] = target: T1, human GIP receptor; assay: cell-based or functional assay

| Binder | hGLP1R cAMP EC50 ratio [1] | hGLP1R cAMP Rel EC50 [1] [nM] | hGIPR cAMP EC50 ratio [2] | hGIPR cAMP Rel EC50 [2] [nM] |
| --- | --- | --- | --- | --- |
| Y[Aib]EGT[αMePhe(2-F)]TSDYSI[Aib]LDEK([AEEA-AEEA-γGlu-C20 diacid])AQ[Aib]AFIEYLIEGG-NH2 (N-terminus assumed; SMILES CC[C@H](C)[C@H](NC(=O)[C@H](CC(C)C)NC(=O)[C@H](Cc1ccc(O)cc1)NC(=O)[C@H](CCC(=O)O)NC(=O)[C@@H](NC(=O)[C@H](Cc1ccccc1)NC(=O)[C@H](C)NC(=O)C(C)(C)NC(=O)[C@H](CCC(N)=O)NC(=O)[C@H](C)NC(=O)[C@H](CCCCNC(=O)COCCOCCNC(=O)COCCOCCNC(=O)CC[C@H](NC(=O)CCCCCCCCCCCCCCCCCCC(=O)O)C(=O)O)NC(=O)[C@H](CCC(=O)O)NC(=O)[C@H](CC(=O)O)NC(=O)[C@H](CC(C)C)NC(=O)C(C)(C)NC(=O)[C@@H](NC(=O)[C@H](CO)NC(=O)[C@H](Cc1ccc(O)cc1)NC(=O)[C@H](CC(=O)O)NC(=O)[C@H](CO)NC(=O)[C@@H](NC(=O)[C@](C)(Cc1ccccc1F)NC(=O)[C@@H](NC(=O)CNC(=O)[C@H](CCC(=O)O)NC(=O)C(C)(C)NC(=O)[C@@H](N)Cc1ccc(O)cc1)[C@@H](C)O)[C@@H](C)O)[C@@H](C)CC)[C@@H](C)CC)C(=O)N[C@@H](CCC(=O)O)C(=O)NCC(=O)NCC(N)=O) [Example 101] | 1.06 | 0.0579 | 2.07 | 0.0704 |
| YXXGTFTSDYSILLDKKAQXAFIEYLIEGGPSSGAPPPS (Aib2; Aad3; K17((2-[2-(2-Amino-ethoxy)-ethoxy]-acetyl)2-(γ-Glu)-CO-(CH2)18-CO2H); Aib20; C-terminal NH2) [Example 89] | 0.175 | 0.335 | 1.57 | 0.119 |
| YXXGTFTSDYSILLDKKAQXAFIEYLIEGGPSSGAPPPS (Aib2; γ-Glu3; K17((2-[2-(2-Amino-ethoxy)-ethoxy]-acetyl)2-(γ-Glu)-CO-(CH2)18-CO2H); Aib20; C-terminal NH2) [Example 91] | < 1.08e-05 | > 5000 | 0.0103 | 19.2 |
| YPEGTFTSDYSILLDKK([AEEA-AEEA-γGlu-C20 diacid])AQ[Aib]AFIEYLIEGGPSSGAPPPS-NH2 (N-terminus assumed; SMILES CC[C@H](C)[C@H](NC(=O)[C@H](CC(C)C)NC(=O)[C@H](Cc1ccc(O)cc1)NC(=O)[C@H](CCC(=O)O)NC(=O)[C@@H](NC(=O)[C@H](Cc1ccccc1)NC(=O)[C@H](C)NC(=O)C(C)(C)NC(=O)[C@H](CCC(N)=O)NC(=O)[C@H](C)NC(=O)[C@H](CCCCNC(=O)COCCOCCNC(=O)COCCOCCNC(=O)CC[C@H](NC(=O)CCCCCCCCCCCCCCCCCCC(=O)O)C(=O)O)NC(=O)[C@H](CCCCN)NC(=O)[C@H](CC(=O)O)NC(=O)[C@H](CC(C)C)NC(=O)[C@H](CC(C)C)NC(=O)[C@@H](NC(=O)[C@H](CO)NC(=O)[C@H](Cc1ccc(O)cc1)NC(=O)[C@H](CC(=O)O)NC(=O)[C@H](CO)NC(=O)[C@@H](NC(=O)[C@H](Cc1ccccc1)NC(=O)[C@@H](NC(=O)CNC(=O)[C@H](CCC(=O)O)NC(=O)[C@@H]1CCCN1C(=O)[C@@H](N)Cc1ccc(O)cc1)[C@@H](C)O)[C@@H](C)O)[C@@H](C)CC)[C@@H](C)CC)C(=O)N[C@@H](CCC(=O)O)C(=O)NCC(=O)NCC(=O)N1CCC[C@H]1C(=O)N[C@@H](CO)C(=O)N[C@@H](CO)C(=O)NCC(=O)N[C@@H](C)C(=O)N1CCC[C@H]1C(=O)N1CCC[C@H]1C(=O)N1CCC[C@H]1C(=O)N[C@@H](CO)C(N)=O) [Example 88] | 0.0918 | 0.64 | 0.392 | 0.475 |
| YXEGTXTSDVSIXLDXKAQXEFIXXLIEGGPSSGAPPPS (Aib2; αMeF(2F)6; αMeL13; Orn16; K17((2-[2-(2-Amino-ethoxy)-ethoxy]-acetyl)2-(γ-Glu)-CO-(CH2)16-CO2H); Aib20; D-Glu24; αMeY25; C-terminal NH2) [Example 5] | 2.69 | 0.0164 | 6.27 | 0.0309 |
| Y[Aib]EGT[αMeF]TSDYSILK([AEEA-AEEA-γGlu-C20 diacid])DKIAQ[Aib]AFIEYLIEGG-NH2 (N-terminus assumed; SMILES CC[C@H](C)[C@H](NC(=O)[C@H](CCCCN)NC(=O)[C@H](CC(=O)O)NC(=O)[C@H](CCCCNC(=O)COCCOCCNC(=O)COCCOCCNC(=O)CC[C@H](NC(=O)CCCCCCCCCCCCCCCCCCC(=O)O)C(=O)O)NC(=O)[C@H](CC(C)C)NC(=O)[C@@H](NC(=O)[C@H](CO)NC(=O)[C@H](Cc1ccc(O)cc1)NC(=O)[C@H](CC(=O)O)NC(=O)[C@H](CO)NC(=O)[C@@H](NC(=O)[C@](C)(Cc1ccccc1)NC(=O)[C@@H](NC(=O)CNC(=O)[C@H](CCC(=O)O)NC(=O)C(C)(C)NC(=O)[C@@H](N)Cc1ccc(O)cc1)[C@@H](C)O)[C@@H](C)O)[C@@H](C)CC)C(=O)N[C@@H](C)C(=O)N[C@@H](CCC(N)=O)C(=O)NC(C)(C)C(=O)N[C@@H](C)C(=O)N[C@@H](Cc1ccccc1)C(=O)N[C@H](C(=O)N[C@@H](CCC(=O)O)C(=O)N[C@@H](Cc1ccc(O)cc1)C(=O)N[C@@H](CC(C)C)C(=O)N[C@H](C(=O)N[C@@H](CCC(=O)O)C(=O)NCC(=O)NCC(N)=O)[C@@H](C)CC)[C@@H](C)CC) [Example 93] | 0.498 | 0.115 | 0.956 | 0.185 |
| YXEGTXTSDYSILLDKIAQXKFIEYLIEGG (Aib2; αMeF6; Aib20; K21((2-[2-(2-Amino-ethoxy)-ethoxy]-acetyl)2-(γ-Glu)-CO-(CH2)18-CO2H); C-terminal NH2) [Example 94] | 0.196 | 0.338 | 0.434 | 0.425 |
| Y[Aib]EGT[αMeF]TSDK([AEEA-AEEA-γGlu-C20 diacid])SILLDKIAQ[Aib]AFIEYLIEGG-NH2 (N-terminus assumed; SMILES CC[C@H](C)[C@H](NC(=O)[C@H](CCCCN)NC(=O)[C@H](CC(=O)O)NC(=O)[C@H](CC(C)C)NC(=O)[C@H](CC(C)C)NC(=O)[C@@H](NC(=O)[C@H](CO)NC(=O)[C@H](CCCCNC(=O)COCCOCCNC(=O)COCCOCCNC(=O)CC[C@H](NC(=O)CCCCCCCCCCCCCCCCCCC(=O)O)C(=O)O)NC(=O)[C@H](CC(=O)O)NC(=O)[C@H](CO)NC(=O)[C@@H](NC(=O)[C@](C)(Cc1ccccc1)NC(=O)[C@@H](NC(=O)CNC(=O)[C@H](CCC(=O)O)NC(=O)C(C)(C)NC(=O)[C@@H](N)Cc1ccc(O)cc1)[C@@H](C)O)[C@@H](C)O)[C@@H](C)CC)C(=O)N[C@@H](C)C(=O)N[C@@H](CCC(N)=O)C(=O)NC(C)(C)C(=O)N[C@@H](C)C(=O)N[C@@H](Cc1ccccc1)C(=O)N[C@H](C(=O)N[C@@H](CCC(=O)O)C(=O)N[C@@H](Cc1ccc(O)cc1)C(=O)N[C@@H](CC(C)C)C(=O)N[C@H](C(=O)N[C@@H](CCC(=O)O)C(=O)NCC(=O)NCC(N)=O)[C@@H](C)CC)[C@@H](C)CC) [Example 92] | 0.258 | 0.257 | 0.546 | 0.338 |
| Y[Aib]NGTFTSDYSILLDKK([AEEA-AEEA-γGlu-C20 diacid])AQ[Aib]AFIEYLIEGGPSSGAPPPS-NH2 (N-terminus assumed; SMILES CC[C@H](C)[C@H](NC(=O)[C@H](CC(C)C)NC(=O)[C@H](Cc1ccc(O)cc1)NC(=O)[C@H](CCC(=O)O)NC(=O)[C@@H](NC(=O)[C@H](Cc1ccccc1)NC(=O)[C@H](C)NC(=O)C(C)(C)NC(=O)[C@H](CCC(N)=O)NC(=O)[C@H](C)NC(=O)[C@H](CCCCNC(=O)COCCOCCNC(=O)COCCOCCNC(=O)CC[C@H](NC(=O)CCCCCCCCCCCCCCCCCCC(=O)O)C(=O)O)NC(=O)[C@H](CCCCN)NC(=O)[C@H](CC(=O)O)NC(=O)[C@H](CC(C)C)NC(=O)[C@H](CC(C)C)NC(=O)[C@@H](NC(=O)[C@H](CO)NC(=O)[C@H](Cc1ccc(O)cc1)NC(=O)[C@H](CC(=O)O)NC(=O)[C@H](CO)NC(=O)[C@@H](NC(=O)[C@H](Cc1ccccc1)NC(=O)[C@@H](NC(=O)CNC(=O)[C@H](CC(N)=O)NC(=O)C(C)(C)NC(=O)[C@@H](N)Cc1ccc(O)cc1)[C@@H](C)O)[C@@H](C)O)[C@@H](C)CC)[C@@H](C)CC)C(=O)N[C@@H](CCC(=O)O)C(=O)NCC(=O)NCC(=O)N1CCC[C@H]1C(=O)N[C@@H](CO)C(=O)N[C@@H](CO)C(=O)NCC(=O)N[C@@H](C)C(=O)N1CCC[C@H]1C(=O)N1CCC[C@H]1C(=O)N1CCC[C@H]1C(=O)N[C@@H](CO)C(N)=O) [Example 90] | 0.11 | 0.532 | 5.17 | 0.0361 |
| YXEGTXTSDYSILLDKIAQXAFIEYLIKGG (Aib2; αMeF6; Aib20; K28((2-[2-(2-Amino-ethoxy)-ethoxy]-acetyl)2-(γ-Glu)-CO-(CH2)18-CO2H); C-terminal NH2) [Example 95] | 0.0576 | 1.01 | 0.145 | 1.17 |
| YXEGTXTSDYSILLDKKAQXAFIEYLIEGG (Aib2; αMeF6; K17((2-[2-(2-Amino-ethoxy)-ethoxy]-acetyl)2-(γ-Glu)-CO-(CH2)18-CO2H); Aib20; C-terminal NH2) [Example 98] | 0.384 | 0.157 | 2.43 | 0.0718 |
